Results taken from US20220177589A1 (OXFORD UNIVERSITY INNOVATION, published 2022).
Residue numbers refer to the chain shown, from its start.

B1: 11.5.1 (antibody, IgG1, V domains shown)
VH: EVQLQESGPSLVKPSQTLSLTCSVTGDSITSAYWNWIRKFPGNKLEYMGYISYSGSTYFNPSLKSRISITRNTSKNQYYLQLNSVTTEDTATYYCARSHYYGYYFDYWGHGTTLTVSS
VL: DIVLTQSPASLAVSLGQRATISCRASETIDSYGDSLMHWYQQKAGQPPKLLIYRASNLESGIPARFSGSGSRTDFTLTINPVEADDVATYYCQQTDEDPYTFGGGTKLEIK
B2: 2.8.6 (antibody, IgG1, V domains shown)
VH: QVQLKESGPGLVAPSQSLSITCTVSGFSLTTYGVHWVRQSPGKGLEWLGVMWPGGRTSYNPAPMSRLSISKDNSKSQVFLKMNSLQTDDTAMYYCVRGDYEYDYYAMDYWGQGTSVTVSS
VL: QIVLSQSPAILSASPGEKVTMTCRASSSVSYMHWYQQKPGSSPKPWIYATSNLASGVPARFSGSGSGTSYSLTISRMEAEDAATYYCHQWSSNPYTFGGGTKLEIK
B3: 4H4 (antibody, IgG1, V domains shown)
VH: QVQLQQSGAELARPGASVKLSCKASGYTFTSYGISWVKQRTGQGLEWIGEIYPRSGNTYYNEKFKGKATLTADKSSSTAYMELRSLTSEDSAVYFCARRRGAGDGFDYWGQGTTLTVSS
VL: DIQMTQTTSSLSASLGDRVTISCSASQGISNYLNWYQQKPDGTVKLLIYYTSSLHSGVPSRFSGSGSGTDYSLTISNLEPEDIATYYCQQYSKLPFTFGSGTKLEIK
B4: 8B4 (antibody, IgG1, V domains shown)
VH: B3 VH with S21P, N57T, R100I, G101S, A102S, D104S, F106V
VL: B3 VL with K93E, F96W, S100G
B5: 4B1 (antibody, IgG1, V domains shown)
VH: B3 VH with K19R, I34L, S35I, V37L, N57S, K63W, S77N, Y80F, A102T, T114I
VL: B3 VL with S92I, K93E
B6: 831 (antibody, V domains shown)
VH: DVQLQESGPDLVKPSQSLSVTCTVTGYSITSGYSWHWIRQFPGNKLEWMGYIHYSGSTNYNPSLKSRISITRDTSKNQFFLQLSSVTTEDTATYYCASGPHRYDGVWFAYWGQGTLVTVSS
VL: EIVLTQSPTTMAASPGEKITITCSASSSISSNYLHWYQQKPGFSPKLLIYRTSNLASGVPARFSGSGSGTSYSLTIGTMEAEDVATYYCQQGTNIPLTFGAGTKLEIK
B7: 21C7 (antibody, IgG1, V domains shown)
VH: QIQLQQSGPELVKPGASVKISCKASGYAFSSSWMNWVKKRPGKGLEWIGRIYPGDGDANYNGKFKGKATLTADKSSSTAYMQLSSLTSEDSAVYFCAGEGHYYGSGYRWYLDVWGTGTTVTVSS
VL: DIQMTQSPASLSVSVGETVTITCRASENIYSNLAWYQQKQGKSPQLLVYAATNLADGVPSRFSGSGSGTQYSLKINSLQSEDFGSYYCQHFRGAPFTFGSGTKLEIK
B8: 6.2 (antibody, IgG1, V domains shown)
VH: EVKLVESGGGLVKPGGSLKLSCAASGFTLSSYGMSWVRQIPEKRLEWVASIRSDGNTYYPDSVKGRFIISRDNARNILYLQMSSLRSEDTAMYYCTRGGYYGSSPYYWGQGTTLTVSS
VL: DIVMSQSPSSLPVSVGEKISMTCKSSQSLLYSSNQKNYLAWYQQKPGQSPKLLIYWASTRDSGVPDRFIGSGSGTDFTLTINSVKAEDLAVYYCQQYYNYLTFGAGTKLELK
B9: 14D4 (antibody, IgG1, V domains shown)
VH: QVQLQQPGAELVKPRASVKLSCKASGYTFTSYWMHWVKQRPGQGLEWIGMIHPNNGIPNYNEKFKSKATLTVDKSSTTAYMQLSSLTSEDSAVYHCAREGYYGSEGYFDVWGTGTTVTVSS
VL: QIVLTQSPAIMSASPGEKVTMTCSASSSISYIHWYQQKPGTSPKRWIYDTSKLASGVPARFSGSGSGTSYSLTISSMEAEDAATYYCHQRSTYPYTFGGGTKLEIK
B10: 24H7 (antibody, IgG1, V domains shown)
VH: QVQLQQSGAELVRPGASVTLSCKASGYTFTDYEIHWVKQTLVHGLEWIGPIDPDTGNTAYNQNLKGKAILTADKSSSTAYMELRSLTSEDSAVYYCTRGGYDSDWGFAYWGQGTLVTVSA
VL: DIVMTQATPSVPVTPGESVSISCRSSKSLLHSNGNTFLFWFLQRPGQSPQLLIYRMSDLASGVPDRFSGSGSGTAFTLRISRVEAEDVGIYYCMQHLEYPFTFGSGTKLEIK
B11: 16H2 (antibody, IgG1, V domains shown)
VH: EVQLQQSGPELVQPGASVKISCKASGYTFTDYYMIWVKQSHGKSLEWIGNINPNNGGTTYNQKFKGKATLTVDKSSSTAYMGLPSLTSEDSAVYYCARGGLRPLYFDYWGQGTTLTVSS
VL: NIVMTQSPKSMSMSVGERVTLSCKASENVDTYVSWYQQKPEQSPKLLIYGASNRYTGVPDRFTGSGSATDFTLTISSVQAEDLADYHCGQSYSYPLTFGAGTKLELI

The binders below were run against T1, chimeric BTLA of humanised-BTLA mice (human extracellular region, murine transmembrane and signaling … (human; mouse, UniProt Q7TSA3 184-306, limits assumed) (assay: cell-based or functional assay).
T1 sequence (Q7TSA3 other isoform, or with tags, fused parts or gaps mutant limits assumed): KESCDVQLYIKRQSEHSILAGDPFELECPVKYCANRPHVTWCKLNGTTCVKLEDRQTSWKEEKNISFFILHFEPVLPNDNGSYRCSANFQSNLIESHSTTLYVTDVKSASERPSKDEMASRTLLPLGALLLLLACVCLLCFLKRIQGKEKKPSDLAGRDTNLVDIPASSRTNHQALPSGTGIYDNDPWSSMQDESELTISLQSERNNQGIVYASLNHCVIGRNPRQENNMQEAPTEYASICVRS

Binder | IC50, inhibition of CD4 T cell proliferation in a mixed lymphocyte reaction
B1 | 16 pM
B2 | 29 pM

Target: T2, full length cynomolgus BTLA expressed in a Jurkat T cell line (cynomolgus monkey, UniProt Q7Z6A9 31-289 (human entry))
T2 chain: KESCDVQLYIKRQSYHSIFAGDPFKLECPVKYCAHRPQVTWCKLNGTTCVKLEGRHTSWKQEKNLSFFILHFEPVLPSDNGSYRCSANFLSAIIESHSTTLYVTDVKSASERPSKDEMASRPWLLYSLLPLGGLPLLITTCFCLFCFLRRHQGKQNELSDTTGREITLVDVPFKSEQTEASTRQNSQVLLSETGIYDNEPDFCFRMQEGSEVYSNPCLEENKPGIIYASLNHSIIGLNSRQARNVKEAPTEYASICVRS
Assay: cell-based or functional assay

Binder | IC50, inhibition of NFkB-GFP reporter in BTLA transfected Jurkat cells
B1 | 140 pM
B2 | 220 pM

Target: T1, chimeric BTLA of humanised-BTLA mice …
Assay: cell-based or functional assay
Remark: another data set of the same source

Binder | AntiCD3/CD28 (CD4 T cell proliferation) repeat 1, % inhibition | AntiCD3/CD28 (CD4 T cell proliferation) repeat 2, % inhibition | AntiCD3/CD28 (CD69+ CD4 T cells) repeat 1, % inhibition | AntiCD3/CD28 (CD69+ CD4 T cells) repeat 2, % inhibition | MLR (CD4 T cell proliferation) repeat 1, % inhibition | MLR (CD4 T cell proliferation) repeat 2, % inhibition
B1 | 21% | 28% | 50% | 47% | 23% | 18%
B3 | 14% | 22% | 43% | 52% | 10% | 17%
B4 | 20% | 4% | 51% | 47% | 33% | 23%
B5 | 14% | 18% | 47% | 41% | 33% | 30%
B6 | 10% | 8% | 50% | 53% | 25% | 34%
B7 | 10% | -4% | 39% | 35% | 8% | 17%
B8 | 19% | 21% | 53% | 61% | 31% | 35%
B9 | 24% | 29% | 43% | 52% | 39% | 26%
B10 | 13% | 23% | 52% | 44% | 23% | 31%
B11 | 11% | 23% | 51% | 60% | 40% | 26%
B2 | 23% | 35% | 58% | 67% | 30% | 36%

The binders below were run against full length human BTLA expressed in a Jurkat T cell line (human, UniProt Q7Z6A9 31-289) (assay: cell-based or functional assay).

Binder | T cell reporter (NFkB signaling), % inhibition
B3 | 25%
B4 | 24%
B5 | 23%
B6 | 24%
B7 | 23%
B8 | 26%
B9 | 16%
B10 | 22%
B11 | 29%
